Consider eleven molecules from patent US20240254227A1 (Alector, published 2024).

The chains are these.
T1: murine CD300F stably expressed on Jurkat cells (mouse, UniProt Q6SJQ7 20-337)
T1 construct: also called muCD300F
T1 sequence: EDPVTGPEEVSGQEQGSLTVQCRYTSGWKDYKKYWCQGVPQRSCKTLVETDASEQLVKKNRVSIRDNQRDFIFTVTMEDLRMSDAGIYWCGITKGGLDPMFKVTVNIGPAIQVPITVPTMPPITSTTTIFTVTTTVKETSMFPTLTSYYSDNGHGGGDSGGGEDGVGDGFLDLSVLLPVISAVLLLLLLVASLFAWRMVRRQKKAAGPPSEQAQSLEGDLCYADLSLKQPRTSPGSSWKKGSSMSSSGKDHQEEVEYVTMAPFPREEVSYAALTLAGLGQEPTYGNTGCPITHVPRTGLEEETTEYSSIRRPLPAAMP

T2: human CD300LB-Fc (human)
T2 construct: hIgG1-Fc fusion; the entry is the whole fusion chain
T2 chain: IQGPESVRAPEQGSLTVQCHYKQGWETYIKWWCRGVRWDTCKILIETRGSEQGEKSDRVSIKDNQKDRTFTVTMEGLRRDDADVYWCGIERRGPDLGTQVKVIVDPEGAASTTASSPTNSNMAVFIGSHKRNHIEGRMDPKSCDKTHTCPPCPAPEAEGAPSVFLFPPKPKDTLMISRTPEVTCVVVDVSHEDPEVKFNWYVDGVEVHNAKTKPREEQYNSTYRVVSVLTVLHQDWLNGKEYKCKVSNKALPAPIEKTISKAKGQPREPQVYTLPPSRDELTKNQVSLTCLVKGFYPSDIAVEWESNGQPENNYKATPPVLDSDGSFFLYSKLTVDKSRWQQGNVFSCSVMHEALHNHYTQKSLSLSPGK

T3: human CD300LB on primary human monocytes (human, UniProt A8K4G0 18-201)
T3 construct: Endogenous protein on primary cells; that the target is CD300LB is inferred from the antibodies being anti-CD300LB antibodies; also called Monocyte donor 1281; Monocyte donor 1282
T3 sequence: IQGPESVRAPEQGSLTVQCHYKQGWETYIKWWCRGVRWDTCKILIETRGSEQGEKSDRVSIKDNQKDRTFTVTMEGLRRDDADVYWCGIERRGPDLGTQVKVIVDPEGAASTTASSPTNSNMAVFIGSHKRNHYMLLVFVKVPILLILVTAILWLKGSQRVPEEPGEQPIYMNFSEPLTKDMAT

B1: anti-CD300LB antibody CD-18 (antibody, V domains shown)
VH: DVQLQESGPDLVKPSQSLSLTCTVTGYSITSGYSWHWIRQFPDNKLEWMGYILSRGDTNFNPSLKSRISITRSTSNNQFFLHFNSVTTEDTATYYCARDFFDYWGQGTTLTVSS
VL: DVLMTQTPLSLPVSLGDQASISCRSSQSIVHSNGNTYLEWYLQKPGQSPKLLIYKVSDRFSGVPDRFSGSGSGTDFTLKISRVEAEDLGVYFCFQGSHVPYTFGGGTKLEIK
B2: anti-CD300LB antibody CD-12 (antibody, V domains shown)
VH: QIQLVQSGPELKKPGETVKISCKASGYTFTDYSMHWVRQAPGKGLKWMAWINTETGEATHADDFKGRFDFSLDTSASTAYLQIKNLKNEDTGIYFCVCYGSSYGMDYWGQGTSVTVSS
VL: DIVLTQSPASLPVSLGQRATISCRASKSVRTSGASYMHWYQQKPGQPPKLLIYLASNLKSGVPTRFSGSGSGTDFTLNIHPVEEEDAATYYCQHNREVPPTFGGGTKLEIK
B3: anti-CD300LB antibody CD-17 (antibody, V domains shown)
VH: QIQLVQSGPELKKPGETVKISCKASGYTLTDYSMHWVKQAPGKGLKWMGWINTETGEPRYGDDFKGRFAFSLETSASSAYLQINNLKNDDTATYFCATYGRSYGMDFWGQGTSVTVSS
VL: B2 VL with P12A, R30S, T31P, A34H, T64A, E85G, V98L, T106S
B4: anti-CD300LB antibody CD-15 (antibody, V domains shown)
VH: QIQLVQSGPELKKPGETVKISCQVSGYTFTDYSMHWLKQAPGKGLKWMAWINTETGESTYTDEFKGRFVFSLETSVRTAYLKINNLKNEDTATYFCGTYGSSYGMAYWGQGTSVTVSS
VL: B2 VL with R30S, A34S, M37L, N57K, K59E, T64A, S67R
B5: anti-CD300LB antibody CD-11 (antibody, V domains shown)
VH: QIQLVQSGPEVKKPGETVKISCKASGYTLTDYSMHWVMQTPGTGLKWMAWMNTETGEPTYADDFKGRFAFSLETSAGTAYLQIDNLKNEDTATYFCATYGKSYGMKYWGQGTSVTVSS
VL: DIVLTQSPPSLAVSLGQRATISCRATKSVSPYLHWYQQTPGQPPKLLIYLASNLDSGVPARFSGSGSGTDFTLNIHPVEEEDAATYYCQHNKELPPTFGGGTRLEIK
B6: anti-CD300LB antibody CD-01 (antibody, V domains shown)
VH: RVQLQQSGAELVRPGASVTLSCKASGFTFTDFEMHWVKKTPVHGLEWIGAIDPESGNTAYNQKFRGKATLTADKSSSTAYMELRYLTSEDSAVYYCTPLISGADYWGQGTTLTVSS
VL: DVVMTQSPLSLPVSLGDQASISCRSSQSLVHSDGNTYLYWYLQKPGQSPKLLIYKVSNRFSGVPDRFSGSGSGTDFTFKISRVGAEDLGVYFCSQSTHVPWTFGGGTKLEII
B7: anti-CD300LB antibody CD-02 (antibody, V domains shown)
VH: QVQLQQPGAELVRPGSSVKLSCQASGYTFTNYWMHWVRQRPIQGLEWIGNIDPSDSETHYNQKFKDRATLTVDKSSSTAYMQLSSLTSEDSAVYYCARSGVYDDEGGDYWGQGTTLTVSS
VL: ENVLTQSPAIMSASPGEKVTMTCSASSSVSYIHWYQQKSSTSPKLWIYDTSKLASGVPGRFSGSGSGNSYSLTISSMETEDVATYYCFQGSGYPLTFGAGTKLELK
B8: anti-CD300LB antibody CD-03 (antibody, V domains shown)
VH: EVQLQQSGPELVKPGASVKISCKASGYTFTDYYINWVRQSHGKSLECIGDINPNNGGTNYNQKFKGKATLTVDRSSNTAYMEFRSLTFDDSALYYCAAEGAYWGQGTLVTVSA
VL: not shown
B9: anti-CD300LB antibody CD-05 (antibody, V domains shown)
VH: QVQLVQSGAEVKKPGASVKVSCKASGYTFSRYYINWVRQAPGQGLEWMGWINPNSGGTNYAQKFQGRVTMTRDTSTSTVYMELSSLRSEDTAVYYCTTDQLRFGKTGPYYGMDVWGQGTTVTVSS
VL: DIQMTQSPSSLSASVGDRVTITCRASQNIGTYLNWYQQKPGKAPKLLIYAASSLQSGVPSRFSGSGSGTDFTLTISSLQPEDFATYYCQQSYSDTLTFGGGTKVEIK
B10: anti-CD300LB antibody CD-07 (antibody, V domains shown)
VH: QVQLVQSGAEVKKPGASVKVSCKASGYTFTNYRMHWVRQAPGQGLEWMGWINPNSGGTIYAQKFQGRVTMTRDTSTSTVYMELSSLRSEDTAVYYCARDLDYWGQGTLVTVSS
VL: B9 VL with R24Q, N28D, G30S, T31N, A50G, D94T, T95P, L96W, G100P
B11: anti-CD300LB antibody CD-06 (antibody, V domains shown)
VH: QVQLVQSGAEVKKPGASVKVSCKASGYTFTTYAVHWVRQAPGQGLEWMGIVNPNSGGTNYAQKFQGRVTMTRDTSTSTVYMELSSLRSEDTAVYYCARDIVPMNNFYNYYYGMDVWGQGTTVTVSS
VL: B9 VL with N28S, G30S, T31S, A51T, S53T, S93R, D94I, T95P, L96Y, G100Q

Residue numbers refer to the chain shown, from its start.

The first assay deals with T1, murine CD300F stably expressed on …. Briefly: flow cytometry, stable Jurkat cells, 10 ug/mL, isotype subtracted. The protocol:
Purified anti-CD300LB antibodies of the present disclosure were analyzed for cross-reactivity to other murine CD300 family members stably expressed in Jurkat cells (generation of which is described above). Cells were counted and labeled with 200 nM CFSE, 500 nM VioBlue, or a combination of the two to discriminate between muCD300LB, Parental cells, CD300F, and the other CD300 family members. Cells were washed thoroughly with PBS containing 2% fetal bovine serum then resuspended at a total of 240,000 cells per well. Purified antibodies at 10 μg/mL were added and incubated for one hour before the cells were washed twice again and stained with an APC-labeled anti-mouse secondary. Cells were then analyzed using a BD FACSCanto II. Antibodies were analyzed for specific binding to muCD300LB by FlowJo software by gating on live cells, then the APC gMFI calculated for each labeled population by subtracting the gMFI of the isotype control. The gMFI results of the analysis are presented below in Table 4.
Background: A flow cytometer gives signals particle by particle.
B1: the gMFI came out at 6.6 gMFI.
On to B2, for which the gMFI worked out at 2.1 gMFI.
Consider B3, for which the gMFI came out at 1.7 gMFI.
As for B4, the gMFI worked out at 1.85 gMFI.
For the molecule B5, the gMFI is 2.35 gMFI.

Another assay has as its target T2, human CD300LB-Fc. Briefly: SPR (Carterra LSA), antibody immobilised, Fc fusion at 300 or 600 nM. The protocol:
Binding of mouse anti-CD300LB IgG1 antibodies of the present disclosure to human and murine CD300 orthologs were evaluated by surface plasmon resonance (SPR) using a Carterra LSA instrument (Carterra, Salt Lake City, UT). […] A HC200M sensor chip (Carterra) was activated using the single channel flow cell with a 7-minute injection of a 1:1:1 mixture of 100 mM MES pH 5.5, 100 mM sulfo-NHS, 400 mM EDC (all reconstituted in MES pH 5.5; 100 μL of each mixed in vial immediately before running assay). After switching to the multi-channel array flow cell, the antibodies were injected over the activated chip in a 96-spot array for 10 minutes. The remaining unconjugated active groups on the chip were then blocked by injecting 1M Ethanolamine pH 8.5 (Carterra) for 7 minutes using the single channel flow cell. After priming with running buffer (HBS-TE, Carterra) with 0.5 mg/ml BSA (Sigma), the immobilized anti-CD300LB antibodies were tested for their ability to bind human and mouse recombinant CD300LB extracellular domains. Human CD300 family members and mouse CD300A were hIgG1-Fc fusions, while mouse CD300LB, mouse CD300C, mouse CD300D, and mouse CD300E were mouse IgG2a-Fc fusions (R&D Systems). Binding was assessed by injecting each analyte over the entire antibody array using the single channel flow cell. CD300 analytes were diluted to 300 nM or 600 nM in running buffer and injected in series without regeneration. Two or three buffer blanks were run between each mouse or human ortholog, respectively. Data were processed and analyzed using NextGenKIT high-throughput kinetics analysis software (Carterra).
Results of anti-CD300LB antibody binding to human CD300 family members is provided below in Table 7.
Regarding B6, the “SPR binding (control subtracted)” value is 3.71.
For B7, the “SPR binding (control subtracted)” value came to 21.
For B8, the “SPR binding (control subtracted)” value was found to be 43.
Same read-out and setting: in the case of B9 it was 51.

The target of another assay is T3, human CD300LB on primary human monocytes. Briefly: flow cytometry, primary human monocytes donor 1284, 10 ug/mL antibody, isotype control subtracted. The protocol: Human monocytes from various donors were isolated from whole blood using RosetteSep Human Monocyte Enrichment Cocktail (Stemcell technologies) and Ficoll centrifugation per manufacturer protocols. After lysing red blood cells with ACK lysing buffer, monocytes were resuspended in complete media (RPMI, 10% FBS, Pen/Strep, L-glutamine, HEPES, non-essential amino acid, Sodium pyruvate). To obtain macrophages from these isolated monocytes, 100 ng/ml human M-CSF and 8% v/v human serum were added to the cells for 5-7 days. Cells were counted on the day of the experiment and plated at 100,000 cells per well in a round-bottom 96 well plate. Cells were incubated with TruStain Fc block and 10 μg/mL antibody for 1 hour on ice before washing with 250 μL ice cold PBS twice. Cells were then incubated with the appropriate APC-conjugated secondary antibodies for 20 minutes in the dark on ice. Finally, cells were washed twice with ice cold FACS buffer and then resuspended in 100 μL FACS buffer containing 1% propidium iodide. Samples were immediately analyzed using a BD FACSCanto flow cytometer. The gMFI was calculated using FlowJo software minus the gMFI of the appropriate isotype control.
As for B10, the gMFI was -189 gMFI.
Molecule B9 came in with a gMFI of 166 gMFI.
On the same count and under the same terms, the result for B11 reads 1010 gMFI.
